Laboratory results taken from PMC4197845 (International journal of cancer. Journal international du …, 2011).

Legend:
[1] = biological target: EGFR extra-cellular domain (EGFR-ECD; a.a. 1-614) fused to a human IgG1 Fc; assay: ELISA
[2] = biological target: EGFR as used for SPR (BIAcore) (Homo sapiens, UniProt P00533); assay: SPR

IC50 [1]: 10 nM
koff [2]: 0.0002 s⁻¹
B1: 38G7 nanobody (VHH)
VHH: EVQLVESGGGLVQAGGSLRLSCAASGRTFSSYVMGWFRQATGKEREFVATIAWDSGSTYYADSVKGRFTISRDNAKNTVHLQMNSLKPEDTAVYYCAASYNVYYNNYYYPISRDEYDYWGQGTQVTVSS
